Paper PMC4259358, “Functional Characterization of Nuclear Localization and Export Signals in Hepatitis C Virus Proteins and Their Role in the Membranous Web” (PLoS ONE, 2014)

B1: HIV-1 Rev NES synthetic peptide (fused to penetratin) (peptide)
peptide: LQLPPLERLTLRQIKIWFQNRRMKWKK
notes: source: synthetic peptide (GL Biochem, HPLC >85%)
B2: Core NES 1 synthetic peptide (fused to penetratin) (peptide)
peptide: KVIDTLTCGFADLMGRQIKIWFQNRRMKWKK
notes: as for B1
B3: NS2 NLS synthetic peptide (fused to penetratin) (peptide)
peptide: PIIFSPMEKKVIVWGRQIKIWFQNRRMKWKK
notes: as for B1
B4: recombinant full-length HCV core protein (natural protein)
chain: STNPKPQRKTKRNTNRRPEDVKFPGGGQIVGGVYLLPRRGPRLGVRTTRKTSERSQPRGRRQPIPKDRRSTGKAWGKPGRPWPLYGNEGLGWAGWLLSPRGSRPSWGPTDPRHRSRNVGKVIDTLTCGFADLMGYIPVVGAPLSGAARAVAHGVRVLEDGVNYATGNLPGFPFSIFLLALLSCITVPVSA
B5: Core NLS 1 synthetic peptide (fused to penetratin) (peptide)
peptide: PKPQRKTKRNTNRRPRQIKIWFQNRRMKWKK
notes: as for B1
B6: Core NES 2 synthetic peptide (fused to penetratin) (peptide)
peptide: LPGCSFSIFLLALLSCITVPVSARQIKIWFQNRRMKWKK
notes: as for B1
B7: NS2 NES synthetic peptide (fused to penetratin) (peptide)
peptide: LILLTLSPHYKLFLARLIWWLQYFITRQIKIWFQNRRMKWKK
notes: as for B1
B8: Core NLS 3 synthetic peptide (fused to penetratin) (peptide)
peptide: PRGRRQPIPKDRRSTGKAWGKPRQIKIWFQNRRMKWKK
notes: as for B1
B9: Core NLS 2 synthetic peptide (fused to penetratin) (peptide)
peptide: PRRGPRLGVRRQIKIWFQNRRMKWKK
notes: as for B1

Columns and labels:
Settings in all cases: both partners purified
[1] = target: T1, recombinant XPO1 (exportin 1/CRM1) (UniProt O14980 1-1071); test: ELISA; plates coated with synthetic peptide (10 µg/ml, carbonate buffer pH 9.6); increasing concentrations of recombinant NTF, 2 h, room temperature; anti-HIS detection; apparent Kd
T1 sequence (O14980 whole entry): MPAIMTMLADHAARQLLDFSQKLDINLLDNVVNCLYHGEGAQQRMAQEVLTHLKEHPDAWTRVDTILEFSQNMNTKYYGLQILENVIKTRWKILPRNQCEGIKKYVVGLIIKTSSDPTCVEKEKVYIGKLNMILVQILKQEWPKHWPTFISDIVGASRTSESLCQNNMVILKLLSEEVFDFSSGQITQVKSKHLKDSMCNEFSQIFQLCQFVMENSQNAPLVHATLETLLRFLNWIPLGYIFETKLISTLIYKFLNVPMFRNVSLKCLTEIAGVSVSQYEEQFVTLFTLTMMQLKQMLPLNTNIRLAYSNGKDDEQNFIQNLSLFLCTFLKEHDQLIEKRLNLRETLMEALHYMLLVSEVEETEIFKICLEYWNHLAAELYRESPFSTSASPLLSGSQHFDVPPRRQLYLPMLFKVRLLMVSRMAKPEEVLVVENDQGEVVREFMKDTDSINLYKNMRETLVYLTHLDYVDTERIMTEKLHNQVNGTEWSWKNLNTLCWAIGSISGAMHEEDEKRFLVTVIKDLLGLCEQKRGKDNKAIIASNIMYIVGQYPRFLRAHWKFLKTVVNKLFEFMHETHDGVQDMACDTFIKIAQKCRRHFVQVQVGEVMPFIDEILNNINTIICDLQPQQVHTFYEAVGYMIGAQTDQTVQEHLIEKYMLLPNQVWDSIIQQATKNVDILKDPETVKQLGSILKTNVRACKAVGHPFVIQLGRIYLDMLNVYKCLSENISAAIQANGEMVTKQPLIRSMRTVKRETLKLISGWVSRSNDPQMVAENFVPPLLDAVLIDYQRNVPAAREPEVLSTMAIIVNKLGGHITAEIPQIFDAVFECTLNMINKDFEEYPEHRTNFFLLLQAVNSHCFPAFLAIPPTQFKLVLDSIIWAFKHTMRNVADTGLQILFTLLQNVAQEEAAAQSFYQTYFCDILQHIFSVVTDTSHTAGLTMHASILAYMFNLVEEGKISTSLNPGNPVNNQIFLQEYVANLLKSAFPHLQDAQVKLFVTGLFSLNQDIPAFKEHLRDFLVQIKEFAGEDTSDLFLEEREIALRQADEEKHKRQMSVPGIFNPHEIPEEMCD

[2] = target: T2, recombinant IPOA5 (importin α5/kap α1) (UniProt P52294 1-538); test: as above
T2 sequence (P52294 whole entry): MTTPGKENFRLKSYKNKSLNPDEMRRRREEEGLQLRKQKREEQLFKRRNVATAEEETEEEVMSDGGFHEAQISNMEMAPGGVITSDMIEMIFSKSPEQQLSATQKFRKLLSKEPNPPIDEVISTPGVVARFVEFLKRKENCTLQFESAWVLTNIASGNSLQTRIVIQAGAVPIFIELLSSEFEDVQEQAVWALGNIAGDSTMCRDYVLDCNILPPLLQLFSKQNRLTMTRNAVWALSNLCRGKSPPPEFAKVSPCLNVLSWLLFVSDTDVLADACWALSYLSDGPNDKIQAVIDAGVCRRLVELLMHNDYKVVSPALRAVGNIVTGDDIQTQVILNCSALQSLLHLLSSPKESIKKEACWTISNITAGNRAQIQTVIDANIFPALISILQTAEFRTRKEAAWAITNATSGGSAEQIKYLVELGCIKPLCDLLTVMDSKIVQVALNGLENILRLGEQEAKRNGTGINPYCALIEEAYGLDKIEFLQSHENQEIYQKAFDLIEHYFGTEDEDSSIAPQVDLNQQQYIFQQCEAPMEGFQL

[3] = target: T2, recombinant IPOA5 (importin α5/kap α1); test: as above; remark: listed apart in the source
[4] = target: T3, recombinant IPO5 (importin β3/kap β3) (UniProt O00410-1 1-1097); test: ELISA; plates coated with recombinant HCV protein (10 µg/ml, carbonate buffer pH 9.6); recombinant NTF added, 2 h, room temperature; anti-NTF antibodies; apparent Kd
T3 sequence (looked up): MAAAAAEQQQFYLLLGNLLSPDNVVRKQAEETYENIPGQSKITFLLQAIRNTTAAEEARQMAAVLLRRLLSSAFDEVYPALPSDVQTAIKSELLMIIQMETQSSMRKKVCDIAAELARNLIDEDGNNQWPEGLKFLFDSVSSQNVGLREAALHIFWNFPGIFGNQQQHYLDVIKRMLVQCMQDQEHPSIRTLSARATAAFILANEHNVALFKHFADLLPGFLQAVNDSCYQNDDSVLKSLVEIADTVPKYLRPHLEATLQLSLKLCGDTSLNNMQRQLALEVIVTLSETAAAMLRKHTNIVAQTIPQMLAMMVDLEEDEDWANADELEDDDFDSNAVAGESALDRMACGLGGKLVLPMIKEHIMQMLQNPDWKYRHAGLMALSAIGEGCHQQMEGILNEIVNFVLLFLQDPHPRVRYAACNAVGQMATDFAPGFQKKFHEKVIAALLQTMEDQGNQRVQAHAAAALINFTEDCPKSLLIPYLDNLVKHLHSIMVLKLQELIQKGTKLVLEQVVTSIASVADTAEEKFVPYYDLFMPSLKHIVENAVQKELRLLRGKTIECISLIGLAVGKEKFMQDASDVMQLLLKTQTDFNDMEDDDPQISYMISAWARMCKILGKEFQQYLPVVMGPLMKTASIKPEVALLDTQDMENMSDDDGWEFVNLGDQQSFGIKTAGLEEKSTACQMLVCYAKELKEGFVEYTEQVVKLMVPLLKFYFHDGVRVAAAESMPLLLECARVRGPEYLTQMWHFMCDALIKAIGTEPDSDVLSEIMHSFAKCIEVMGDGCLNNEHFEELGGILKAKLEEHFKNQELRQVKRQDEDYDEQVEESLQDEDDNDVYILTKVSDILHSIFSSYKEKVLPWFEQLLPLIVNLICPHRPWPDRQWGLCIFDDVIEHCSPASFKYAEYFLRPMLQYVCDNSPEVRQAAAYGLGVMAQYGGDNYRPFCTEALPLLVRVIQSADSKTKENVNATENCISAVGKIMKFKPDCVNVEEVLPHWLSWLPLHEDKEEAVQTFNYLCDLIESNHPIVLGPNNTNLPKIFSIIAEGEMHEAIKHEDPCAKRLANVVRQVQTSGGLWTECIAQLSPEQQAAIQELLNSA

[5] = target: T1, recombinant XPO1 (exportin 1/CRM1); test: as above
[6] = target: T2, recombinant IPOA5 (importin α5/kap α1); test: as above
[7] = target: T3, recombinant IPO5 (importin β3/kap β3); test: ELISA; plates coated with synthetic peptide (10 µg/ml, carbonate buffer pH 9.6); increasing concentrations of recombinant NTF, 2 h, room temperature; anti-HIS detection; apparent Kd

Row | Binder | Kd [1] | Kd [3] | Kd [7] | other results
1 | B1 | 114 ± 71.5 nM |  |  | 
2 | B2 | 66.7 ± 11.3 nM |  |  | 
3 | B3 |  | 79.2 ± 3.89 nM |  | Kd [2]: ~34 nM
4 | B4 |  |  |  | Kd [4]: 56 ± 2.78 nM; Kd [5]: 23.1 ± 4.07 nM; Kd [6]: 36.8 ± 4.83 nM
5 | B5 |  | 161 ± 31.8 nM | 34.8 ± 4.54 nM | 
6 | B6 | 95.2 ± 26.6 nM |  |  | 
7 | B7 | 79.8 ± 25.6 nM |  |  | 
8 | B8 |  | 17.5 ± 0.81 nM | 40.4 ± 7.06 nM | 
9 | B9 |  | 24.9 ± 1.71 nM | 78.8 ± 6.42 nM | 
